Source: FireProtDB (doi:10.1021/acs.biochem.7b00571)

Details: Nicotiana tabacum; pH 7.2; 4 °C; Urea; Fluorescence; BES; reversible: yes; whole UniProt chain shown

B1: Salicylic acid-binding protein 2 wild type, Q6RYA0 (protein)
chain: MKEGKHFVLVHGACHGGWSWYKLKPLLEAAGHKVTALDLAASGTDLRKIEELRTLYDYTLPLMELMESLSADEKVILVGHSLGGMNLGLAMEKYPQKIYAAVFLAAFMPDSVHNSSFVLEQYNERTPAENWLDTQFLPYGSPEEPLTSMFFGPKFLAHKLYQLCSPEDLALASSLVRPSSLFMEDLSKAKYFTDERFGSVKRVYIVCTEDKGIPEEFQRWQIDNIGVTEAIEIKGADHMAMLCEPQKLCASLLEIAHKYN
denaturant midpoint (higher = more stable): 2.2 M
